Results as given in patent publication US20100260748A1 (published 2010).

T1: human FcRH5 expressed on stably transfected cells (BJAB.huFcRH5, OPM2.huFcRH5) (human, UniProt Q96RD9 16-977)
T1 construct: also called OPM2-FcRH5; BJAB-FcRH5
T1 chain: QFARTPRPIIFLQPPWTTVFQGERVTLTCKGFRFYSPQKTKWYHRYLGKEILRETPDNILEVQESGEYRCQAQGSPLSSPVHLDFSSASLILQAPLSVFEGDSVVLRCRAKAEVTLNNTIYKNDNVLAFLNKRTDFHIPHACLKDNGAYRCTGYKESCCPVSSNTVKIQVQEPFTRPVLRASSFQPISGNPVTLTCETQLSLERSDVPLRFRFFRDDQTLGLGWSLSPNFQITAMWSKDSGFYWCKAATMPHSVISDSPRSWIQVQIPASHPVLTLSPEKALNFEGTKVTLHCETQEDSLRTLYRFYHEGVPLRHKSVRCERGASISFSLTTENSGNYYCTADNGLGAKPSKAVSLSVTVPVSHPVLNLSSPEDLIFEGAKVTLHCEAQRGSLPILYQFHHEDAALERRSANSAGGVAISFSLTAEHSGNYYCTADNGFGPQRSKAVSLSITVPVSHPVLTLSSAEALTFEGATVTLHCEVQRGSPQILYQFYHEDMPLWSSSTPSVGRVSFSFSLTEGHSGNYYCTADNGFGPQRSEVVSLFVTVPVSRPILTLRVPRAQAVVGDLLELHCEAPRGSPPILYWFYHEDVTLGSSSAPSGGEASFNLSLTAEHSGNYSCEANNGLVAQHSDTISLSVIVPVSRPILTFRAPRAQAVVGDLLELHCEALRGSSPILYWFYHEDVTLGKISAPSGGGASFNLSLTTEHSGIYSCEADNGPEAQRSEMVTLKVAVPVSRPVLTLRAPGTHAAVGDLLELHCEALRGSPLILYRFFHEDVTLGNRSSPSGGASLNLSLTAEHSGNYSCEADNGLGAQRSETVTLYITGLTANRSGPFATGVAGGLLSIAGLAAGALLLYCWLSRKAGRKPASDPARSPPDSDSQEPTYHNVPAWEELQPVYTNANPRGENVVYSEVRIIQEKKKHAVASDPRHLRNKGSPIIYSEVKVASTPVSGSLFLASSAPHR

T2: cynomolgus FcRH5 expressed on stably transfected SVT2 cells (cynomolgus monkey)
T2 construct: also called cyno FcRH5; cynoFcRH5
T2 chain: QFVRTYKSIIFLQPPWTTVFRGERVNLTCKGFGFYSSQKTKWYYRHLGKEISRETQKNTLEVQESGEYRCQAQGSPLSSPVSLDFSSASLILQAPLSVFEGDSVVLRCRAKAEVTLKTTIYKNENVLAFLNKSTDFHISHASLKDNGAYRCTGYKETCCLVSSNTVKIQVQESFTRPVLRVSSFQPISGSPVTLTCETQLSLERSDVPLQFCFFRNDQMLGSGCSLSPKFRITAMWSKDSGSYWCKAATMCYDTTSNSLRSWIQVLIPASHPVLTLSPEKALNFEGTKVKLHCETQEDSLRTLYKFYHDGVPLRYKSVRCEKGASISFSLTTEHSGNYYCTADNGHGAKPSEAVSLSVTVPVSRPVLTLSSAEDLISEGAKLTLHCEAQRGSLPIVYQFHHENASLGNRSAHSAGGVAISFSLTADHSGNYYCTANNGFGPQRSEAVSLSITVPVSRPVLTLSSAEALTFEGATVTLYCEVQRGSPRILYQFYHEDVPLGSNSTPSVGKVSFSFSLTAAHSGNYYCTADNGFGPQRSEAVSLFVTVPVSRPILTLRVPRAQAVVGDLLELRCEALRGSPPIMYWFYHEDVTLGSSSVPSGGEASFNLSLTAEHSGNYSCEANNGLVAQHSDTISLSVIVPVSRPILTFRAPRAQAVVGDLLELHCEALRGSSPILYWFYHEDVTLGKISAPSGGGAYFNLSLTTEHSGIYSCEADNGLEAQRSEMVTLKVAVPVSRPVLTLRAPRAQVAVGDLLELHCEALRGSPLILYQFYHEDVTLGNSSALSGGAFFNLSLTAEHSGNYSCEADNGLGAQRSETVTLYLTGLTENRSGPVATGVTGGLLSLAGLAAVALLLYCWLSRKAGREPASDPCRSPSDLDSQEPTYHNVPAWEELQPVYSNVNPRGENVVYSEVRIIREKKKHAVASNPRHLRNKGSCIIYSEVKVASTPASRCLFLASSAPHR


Assays:
[1] = target: T1, human FcRH5 expressed on stably …; assay: Scatchard analysis, 0.5 nM 125I-labelled antibody competed with the same unlabelled antibody (50 to 0.02 nM), OPM2.huFcRH5 cells, 4 h at 4 C
Experimental: (§1) To further determine binding of the FcRH5 murine antibodies and IgG clones, binding of iodinated IgG variants to OPM2 cells expressing human FcRH5 and SVT2 cells expressing cynomologous FcRH5, Scatchard analysis was performed.
(§2) For Scatchard analysis, 0.5 nM I¹²⁵ labeled murine or IgG clone anti-FcRH5 was competed against unlabeled murine or IgG clone anti-FcRH5, respectively, ranging from 50 to 0.02 nM (12 step 1:2 serial dilution) in the presence of a transfected OPM2 line stably expressing human-FcRH5 and a transfected SVT2 line stably expressing cynomologous-FcRH5. After a four hour incubation at 4° C., cells were washed and cell pellet counts were read by a gamma counter (1470 WIZARD Automatic Gamma Counter; Perkin Elmer, Walthem, Mass.). All points were done in triplicate and counted for 10 minutes. The average CPM was used for Kd calculation using the New Ligand (Genentech, South San Francisco, Calif.) program.

[2] = target: T2, cynomolgus FcRH5 expressed on stably …; assay: Scatchard analysis, 0.5 nM 125I-labelled antibody competed with the same unlabelled antibody (50 to 0.02 nM), SVT2.cyFcRH5 cells, 4 h at 4 C
Experimental: as §1, §2

[3] = target: T1, human FcRH5 expressed on stably …; assay: Scatchard analysis, 0.5 nM 125I-labelled antibody competed with the same unlabelled antibody (50 to 0.02 nM), BJAB.huFcRH5 cells, 4 h at 4 C
[4] = target: T1, human FcRH5 expressed on stably …; assay: FACS (0.1, 1.0, 10 ug/mL ADC) on OPM2 cells stably expressing human FcRH5
Experimental: For FACS analysis of FcRH5 antibody drug conjugates (see Example 2), FcRH5 ADCs were added in increasing concentrations (0.1, 1.0, and 10 μg/mL) to 10⁶ OPM2 cells transfected with and stably expressing human FcRH5 or SVT2 cells transfected with and stably expressing cynomolgus FcRH5 in a 100 μL reaction volume. Samples were then incubated 1 hr at […] in FACS buffer (PBS, 0.5% BSA, 0.1% sodium azide) to inhibit interalization. After washing, cells were resuspended in FACS buffer and incubated 30 min at room temperature with 20 μL mouse anti-human IgG conjugated to phycoerythrin (Ms anti-Human-PE) secondary antibody in a 100 μL reaction volume. After washing, cells were fixed in 200 μL 2% paraformaldehyde/PBS and flow cytometery performed. The same procedure was used for HuIgG, however, at only the highest concentration (10 μg/mL). The HuIgG was used as an isotype control to set baseline PMT per cell line. Flow cytomery was performed on a BD FACSCalibur® and geometric mean fluorescence intensity was recorded for each sample. Recorded data was analyzed using FlowJo v8.4.5 software (see FIGS. 20-25).

Binder | Kd [2] | binding result [4] | also measured
humanized anti-FcRH5 antibody 10A8 version 1 (hu10A8 v1) (antibody, human IgG1, V domains shown, Full-length human IgG1 with human kappa constant domain; also called 10A8-graft; hu10A8 graft) VL: DIQMTQSPSSLSASVGDRVTITCKASQDVSTAVAWYQQKPGKAPKLLIYSASYRYTGVPSRFSGSGSGTDFTLTISSLQPEDFATYYCQQHFSSPRTFGQGTKVEIKR VH: EVQLVESGGGLVQPGGSLRLSCAASGFTFSSYAVSWVRQAPGKGLEWVATISSGGSLTFYLDSVRGRFTISRDNSKNTLYLQMNSLRAEDTAVYYCARPIPDYYALDYWGQGTLVTVSS | 3.04 nM |  | Kd [1]: 1.44 nM
murine anti-FcRH5 (10A8) monoclonal antibody (antibody, V domains shown, Murine hybridoma IgG; also called 10A8.1.1; mu10A8) VL: DIVMTQSHKFMSTSVRDRVSITCKASQDVSTAVAWYQQKPGQSPKLLIYSASYRYTGVPDRFTGSGSGTDFTFTISSVQAEDLAVYYCQQHFSSPRTFGGGTKVEIKR VH: EVQLVESGGGLVKPGGSLKISCAASGFTFSSYAVSWVRQTPEKRLEWVATISSGGSLTFYLDSVRGRFTISRDNAKNTLYLQMSSLRSEDTAMYYCARPIPDYYALDYWGQGTSVTVSS | 2.74 nM |  | Kd [3]: 0.44 nM
thio-hu10A8-HC(A118C)-MC-vc-PAB-MMAE (antibody, human IgG1, kappa, MC-vc-PAB-MMAE on the engineered Cys 118 (EU numbering), Antibody-drug conjugate (thioMab drug conjugate); also called thio-HC(A118C)-hu-anti-FcRH5 (10A8)-MC-vc-PAB-MMAE; Thio-HC(A118C)-hu-anti-FcRH5 (10A8)-vc-E) heavy: not shown light: DIQMTQSPSSLSASVGDRVTITCKASQDVSTAVAWYQQKPGKAPKLLIYSASYRYTGVPSRFSGSGSGTDFTLTISSLQPEDFATYYCQQHFSSPRTFGQGTKVEIKRTVAAPSVFIFPPSDEQLKSGTASVVCLLNNFYPREAKVQWKVDNALQSGNSQESVTEQDSKDSTYSLSSTLTLSKADYEKHKVYACEVTHQGLSSPVTKSFNRGEC |  | binds | 
thio-hu10A8 v1-HC(A118C) (antibody, human IgG1, kappa, Cysteine engineered humanized IgG1 (thioMab), unconjugated; also called thio.hu10A8.HC; Thio-hu10A8-HC(A118C)) heavy: not shown light: DIQMTQSPSSLSASVGDRVTITCKASQDVSTAVAWYQQKPGKAPKLLIYSASYRYTGVPSRFSGSGSGTDFTLTISSLQPEDFATYYCQQHFSSPRTFGQGTKVEIKRTVAAPSVFIFPPSDEQLKSGTASVVCLLNNFYPREAKVQWKVDNALQSGNSQESVTEQDSKDSTYSLSSTLTLSKADYEKHKVYACEVTHQGLSSPVTKSFNRGEC | 3.12 nM |  | 
thio-hu10A8 v1-LC(V205C) (antibody, human IgG1, kappa, Cysteine engineered humanized IgG1 (thioMab), unconjugated; also called thio.hu10A8.LC; thio-hu10A8-LC(V205C)) heavy: not shown light: DIQMTQSPSSLSASVGDRVTITCKASQDVSTAVAWYQQKPGKAPKLLIYSASYRYTGVPSRFSGSGSGTDFTLTISSLQPEDFATYYCQQHFSSPRTFGQGTKVEIKRTVAAPSVFIFPPSDEQLKSGTASVVCLLNNFYPREAKVQWKVDNALQSGNSQESVTEQDSKDSTYSLSSTLTLSKADYEKHKVYACEVTHQGLSSPCTKSFNRGEC | 2.63 nM |  | 
thio-hu10A8-LC(V205C)-MC-vc-PAB-MMAE (antibody, human IgG1, kappa, MC-vc-PAB-MMAE on the engineered Cys 205 (Kabat numbering), Antibody-drug conjugate (thioMab drug conjugate); also called Thio-LC(L205C)-hu-anti-FcRH5 (10A8)-vc-E) heavy: not shown light: DIQMTQSPSSLSASVGDRVTITCKASQDVSTAVAWYQQKPGKAPKLLIYSASYRYTGVPSRFSGSGSGTDFTLTISSLQPEDFATYYCQQHFSSPRTFGQGTKVEIKRTVAAPSVFIFPPSDEQLKSGTASVVCLLNNFYPREAKVQWKVDNALQSGNSQESVTEQDSKDSTYSLSSTLTLSKADYEKHKVYACEVTHQGLSSPCTKSFNRGEC |  | binds | 
Thio-ch10A8-HC(A118C)-MC-vc-PAB-MMAE (antibody, human IgG1, kappa, name in EU numbering, MC-vc-PAB-MMAE on the engineered Cys 118 (EU numbering), Antibody-drug conjugate of thio-ch10A8.HC) light: DIVMTQSHKFMSTSVRDRVSITCKASQDVSTAVAWYQQKPGQSPKLLIYSASYRYTGVPDRFTGSGSGTDFTFTISSVQAEDLAVYYCQQHFSSPRTFGGGTKVEIKRTVAAPSVFIFPPSDEQLKSGTASVVCLLNNFYPREAKVQWKVDNALQSGNSQESVTEQDSKDSTYSLSSTLTLSKADYEKHKVYACEVTHQGLSSPVTKSFNRGEC heavy: not shown |  | binds | 
cysteine engineered chimeric anti-FcRH5 10A8, heavy chain A118C (thio-ch10A8.HC) (antibody, human IgG1, kappa, name in EU numbering, also called Thio-ch10A8-HC(A118C)) light: DIVMTQSHKFMSTSVRDRVSITCKASQDVSTAVAWYQQKPGQSPKLLIYSASYRYTGVPDRFTGSGSGTDFTFTISSVQAEDLAVYYCQQHFSSPRTFGGGTKVEIKRTVAAPSVFIFPPSDEQLKSGTASVVCLLNNFYPREAKVQWKVDNALQSGNSQESVTEQDSKDSTYSLSSTLTLSKADYEKHKVYACEVTHQGLSSPVTKSFNRGEC heavy: not shown | 1.57 nM |  | Kd [1]: 0.85 nM
ch10A8-SPDB-DM4 (antibody, human IgG1, kappa, DM4 linked through the e-amino group of lysine using the SPDB linker (sites not given)) light: DIVMTQSHKFMSTSVRDRVSITCKASQDVSTAVAWYQQKPGQSPKLLIYSASYRYTGVPDRFTGSGSGTDFTFTISSVQAEDLAVYYCQQHFSSPRTFGGGTKVEIKRTVAAPSVFIFPPSDEQLKSGTASVVCLLNNFYPREAKVQWKVDNALQSGNSQESVTEQDSKDSTYSLSSTLTLSKADYEKHKVYACEVTHQGLSSPVTKSFNRGEC heavy: not shown |  | binds | 
chimeric anti-human FcRH5 antibody 10A8 (ch10A8) (antibody, human IgG1, kappa, Murine 10A8 variable domains with human kappa and human IgG1 constant domains; also called chMAFcRH5 (10A8); chFcRH5 (10A8)) light: DIVMTQSHKFMSTSVRDRVSITCKASQDVSTAVAWYQQKPGQSPKLLIYSASYRYTGVPDRFTGSGSGTDFTFTISSVQAEDLAVYYCQQHFSSPRTFGGGTKVEIKRTVAAPSVFIFPPSDEQLKSGTASVVCLLNNFYPREAKVQWKVDNALQSGNSQESVTEQDSKDSTYSLSSTLTLSKADYEKHKVYACEVTHQGLSSPVTKSFNRGEC heavy: not shown | 0.98 nM |  | 
